Bridge positions count the residues as written; N and C are the ends. Ends that are not written are not given here.
target: T1, human IL-2Rβ (CD122 protein, Fc Tag) (27-239) (human, UniProt P14784 27-239); experiment: phage ELISA competition
T1 construct: range 27-239; Bought protein; also called hu-IL-2Rβ subunit; IL-2Rβ subunit; not shown: Fc tag of the bought protein
T1 sequence (looked up): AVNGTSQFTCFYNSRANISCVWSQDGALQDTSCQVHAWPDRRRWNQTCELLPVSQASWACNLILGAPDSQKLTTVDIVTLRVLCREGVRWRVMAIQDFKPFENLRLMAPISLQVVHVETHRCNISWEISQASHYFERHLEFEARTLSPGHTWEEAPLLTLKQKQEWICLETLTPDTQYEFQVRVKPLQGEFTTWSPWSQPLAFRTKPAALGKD
Procedure, shortened: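 In this competitive binding ELISA, test ligands compete with a phage tracer for human IL-2Rβ-Fc, and IC50 is calculated from the absorbance signal over the ligand dilution series. A 50 μL volume of phage tracer was added without washing and left for 45 min at 4° C. TMB was used to detect bound phage for 1 to 15 min at 25° C, after which stop solution was added and absorbance was read at 450 nm.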

Binder	IC50 [µM]
WWPCEIAQIGELCDLEWVRHAE (disulfide 4-13 (inferred)) [SEQ ID NO 2806]	< 100
WWPCDFAQIGELCDLGPRFTGE [SEQ ID NO 2807]	< 100
RDWWLPCEFALIGELCDLERSW [SEQ ID NO 2808]	< 100
SWHAETWYPCWLAQVGELCDLD [SEQ ID NO 2810]	< 100
EWFHDCFLAKVGDLCDLFLW [SEQ ID NO 2811]	< 100
KWFHDCFLAKVGDLCDLFLW [SEQ ID NO 2864]	< 100
SGKTQMWNPCYVAKVGELCDLV [SEQ ID NO 2812]	< 100
DKAGPNFYPCWLAHVGELCDQA [SEQ ID NO 2813]	< 100
AGFRGRWWPCEYAQVGELCDLE [SEQ ID NO 2814]	< 100
WFPCWLAKVGELCDRDDLAGPS [SEQ ID NO 2815]	< 100
WWPCEWARIGELCDLE (disulfide 4-13 (inferred)) [SEQ ID NO 2816]	< 100
KGSSWFPCYFAQVGDLCDLY (disulfide 8-17 (inferred)) [SEQ ID NO 2817]	< 100
WYPCWLAQVGELCDRE (disulfide 4-13 (inferred)) [SEQ ID NO 2818]	< 100
RGVYFPCWLAKVGDLCDSDEF [SEQ ID NO 2819]	< 100
RAWWWPCELAQVGELCDLEPSS [SEQ ID NO 2820]	< 100
WYPCWLAKVGELCDQE [SEQ ID NO 2821]	< 100
RYVPDCLKAQVGDLCDFFAW [SEQ ID NO 2822]	< 100
WWPCYLAQIGELCDLV [SEQ ID NO 2823]	< 100
WYPCWMAKVGELCDME [SEQ ID NO 2824]	< 100
QITDSGWYPCWVAKVGELCDMD (disulfide 10-19 (inferred)) [SEQ ID NO 2825]	< 100
YRWWYPCDIAQVGELCDLDYLL [SEQ ID NO 2826]	< 100

Binder	IC50 [µM]
WLPCWIAKIGDLCDLD [SEQ ID NO 2828]	< 100
SRVWHPCWLARVGELCDLEVSD [SEQ ID NO 2829]	< 100
WEHEFTWYPCWIAQVGELCDMD [SEQ ID NO 2830]	< 100
HRGWVGWYPCEYALPGQLCDLE [SEQ ID NO 2831]	< 100
WYPCWLAQLGELCDQDWDTPS [SEQ ID NO 2832]	< 100
RVRRHSWWPCEIAVVGELCDLE [SEQ ID NO 2833]	< 100
DGWWPCWIAQVGELCDLEDPV [SEQ ID NO 2834]	< 100
LPFQDCYIAQVGELCDLPGT [SEQ ID NO 2835]	< 100
RWMFDCLFARVGELCDIRPW (disulfide 6-15 (inferred)) [SEQ ID NO 2836]	< 100
GGYYDCLIAEVGELCDMPGQ [SEQ ID NO 2837]	< 100
VVCYACDIAHVGELCDLTCR [SEQ ID NO 2838]	< 100
TPWYDCYIANVGDLCDFASA [SEQ ID NO 2839]	< 100
LESLDCFFARIGDLCEIWDV [SEQ ID NO 2840]	< 100
WQIFDCYLAQVGELCDLQDT (disulfide 6-15 (inferred)) [SEQ ID NO 2841]	< 100
GRYPDCYIAHVGELCEFYDG [SEQ ID NO 2842]	< 100
LVYYDCYMAQVGELCDLPSL (disulfide 6-15 (inferred)) [SEQ ID NO 2844]	< 100
VSRYDCYIAKVGELCDFFEF [SEQ ID NO 2845]	< 100
VTVQDCYFARVGDLCDLFSP [SEQ ID NO 2846]	< 100
WEWYDCLMAQVGELCDFEGN [SEQ ID NO 2847]	< 100
WAFYDCRNAQVGDFCDLWEF [SEQ ID NO 2848]	< 100
SMDQDCYFAQVGELCVLFNQ [SEQ ID NO 2849]	< 100

Binder	IC50 [µM]
GGYYDCLIAEVGELCDIYGR [SEQ ID NO 2850]	< 100
SNWHDCLFAQVGELCDLPGS (disulfide 6-15 (inferred)) [SEQ ID NO 2851]	< 100
YDCYIAQVGELCDI [SEQ ID NO 2852]	< 100
SWLSDLQDCYIAQVGDLCQI [SEQ ID NO 2853]	< 100
RLASDWWDCYIAKVGELCDF [SEQ ID NO 2855]	< 100
RLLRDCFLAKVGDLCELFVW [SEQ ID NO 2856]	< 100
QWFHNCFLARVGDTCDLFLW [SEQ ID NO 2857]	< 100
ELLVDCFKVKVGELCDLFFG (disulfide 6-15 (inferred)) [SEQ ID NO 2858]	< 100
RYVHDCFIAQVGDLCDLFLH [SEQ ID NO 2859]	< 100
KWVHDCFLAKVGDVCDLFVV [SEQ ID NO 2860]	< 100
RSLVDCFLVKVGDLCDFFNW [SEQ ID NO 2861]	< 100
RYLYDCFLALVGDLCVKFHQ [SEQ ID NO 2862]	< 100
AHFYDCFWAKAGELCDLWPS (disulfide 6-15 (inferred)) [SEQ ID NO 2863]	< 100
WGKLVRDCFLAKVGDLCDLFLW [SEQ ID NO 2865]	< 100
THVHDCFLAKVGDLCDLFIV [SEQ ID NO 2866]	< 100
HWVRDCFLAKVGELCDLFLW [SEQ ID NO 2867]	< 100
HGILDCYFAKVGELCELFDW [SEQ ID NO 2868]	< 100
QFVKDCFLAQVGDLCELFLW [SEQ ID NO 2869]	< 100
DWLPDCYFANVGDLCSLFGS [SEQ ID NO 2870]	< 100
HWFLDCFLANVGDLCDFFGN [SEQ ID NO 2871]	< 100
NWLPDCLFANVGELCDIFPW [SEQ ID NO 2872]	< 100

— patent US20220119492A1 (MEDIKINE, published 2022)
